Test [1] has as its target FcγRIIB on Raji cells (human (endogenous in Raji)) (UniProt P31994). Description: flow cytometry on cells; 250.000 Raji cells (FcγRIIB+, CD20+) with 6G11 or light chain constructs 1000-0.005 nM (1:5 dilutions), 30 min RT in PBS-B; anti-human Fc PE secondary antibody.
Test [2] deals with S2N‐6G11 (S2N scFv fused to the N‐terminus of the 6G11 light chain via an MMP‐9 cleavable linker), prior to MMP‐9 digestion (human | chicken). In words: BLI; 6G11 or light chain construct (5 µg/mL) loaded on Protein A biosensors; FcγRIIB 125 to 15.6 nM in 1:2 dilutions, 60 s association, 40 s dissociation in kinetics buffer. For orientation: Biolayer interferometry detects binding as a change in optical thickness at a sensor tip.

The target in test [3] is S2B‐6G11 post MMP‐9 digestion and partial removal of the scFv on a 6G11‐based affinity column (human). The test is described as above.
Test [4] concerns the target 6G11 (BI‐1206), full‐length antibody containing the PGLALA Fc mutations (human). Described as above.

Sequence of S2N‐6G11 (S2N scFv fused to the N‐terminus of the 6G11 light chain via an MMP‐9 cleavable linker), prior to MMP‐9 digestion (human | chicken) (heavy, as listed by the source, chain 1 of 4): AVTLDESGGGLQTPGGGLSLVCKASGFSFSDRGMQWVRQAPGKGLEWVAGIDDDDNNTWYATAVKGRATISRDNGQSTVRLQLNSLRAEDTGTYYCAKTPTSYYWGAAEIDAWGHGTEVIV
Sequence of S2N‐6G11 (S2N scFv fused to the N‐terminus of the 6G11 light chain via an MMP‐9 cleavable linker), prior to MMP‐9 digestion (human | chicken) (heavy, as listed by the source, chain 2 of 4): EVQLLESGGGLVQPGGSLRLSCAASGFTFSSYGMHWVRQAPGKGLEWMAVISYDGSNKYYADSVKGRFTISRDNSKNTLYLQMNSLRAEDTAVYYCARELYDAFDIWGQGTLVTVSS
Sequence of S2N‐6G11 (S2N scFv fused to the N‐terminus of the 6G11 light chain via an MMP‐9 cleavable linker), prior to MMP‐9 digestion (human | chicken) (light, as listed by the source, chain 3 of 4): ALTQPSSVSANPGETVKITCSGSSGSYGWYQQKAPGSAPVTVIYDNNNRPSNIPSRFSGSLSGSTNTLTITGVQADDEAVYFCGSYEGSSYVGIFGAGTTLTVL
Sequence of S2N‐6G11 (S2N scFv fused to the N‐terminus of the 6G11 light chain via an MMP‐9 cleavable linker), prior to MMP‐9 digestion (human | chicken) (light, as listed by the source, chain 4 of 4): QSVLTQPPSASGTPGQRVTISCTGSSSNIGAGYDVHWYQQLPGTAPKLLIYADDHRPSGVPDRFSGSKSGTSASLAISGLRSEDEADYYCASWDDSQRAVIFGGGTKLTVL
Sequence of S2B‐6G11 post MMP‐9 digestion and partial removal of the scFv on a 6G11‐based affinity column (human) (heavy, as listed by the source, chain 1 of 2): as the sequence (heavy, as listed by the source, chain 2 of 4) above
Sequence of S2B‐6G11 post MMP‐9 digestion and partial removal of the scFv on a 6G11‐based affinity column (human) (light, as listed by the source, chain 2 of 2): as the sequence (light, as listed by the source, chain 4 of 4) above
Sequence of 6G11 (BI‐1206), full‐length antibody containing the PGLALA Fc mutations (human) (heavy, as listed by the source, chain 1 of 2): as the sequence (heavy, as listed by the source, chain 2 of 4) above
Sequence of 6G11 (BI‐1206), full‐length antibody containing the PGLALA Fc mutations (human) (light, as listed by the source, chain 2 of 2): as the sequence (light, as listed by the source, chain 4 of 4) above

As usually defined, the EC50 is the concentration that produces a half-maximal response. With “6G11 (BI‐1206), full‐length antibody containing the PGLALA Fc mutations”, in test [1], the concentration giving a half-maximal response (EC50) amounted to 0.4 nM.
For orientation: Kd means the free concentration of one partner at which half of the binding sites on the other are occupied at equilibrium, for simple one-to-one binding. Take “His‐tagged human FcγRIIB extracellular domain protein (from UniProt P31994 43-217) (domain or fragment)”: the dissociation constant Kd in test [2] was determined as 8.3 nM; in test [3], 5.9 nM; in test [4], 32.1 nM.

(Values after publication PMC11629141.)
